What was measured:
calcineurin (CNA/B) = calcineurin (CNA/B) (UniProt Q08209); assay: ITC
[1] = target: pre-formed RCAN1^128-164:calcineurin complex, Q08209; assay: ITC, peptide titrated into the pre-formed RCAN1^128-164:calcineurin complex

| Molecule | fold decrease in Kd (against unmutated RCAN1) (calcineurin (CNA/B)) | Kd (calcineurin (CNA/B)) | also measured |
| --- | --- | --- | --- |
| RCAN1 construct with the PxIxIT (SEQ ID NO: 9) motif deleted |  |  | fold decrease in binding affinity (calcineurin (CNA/B)): 220 fold |
| RCAN1 mutant HLAPP (SEQ ID NO: 16) →AAAAA (SEQ ID NO: 17) (from UniProt P53805 56-252) | 2.5 fold |  |  |
| RCAN1 mutant PSVVVH (SEQ ID NO: 13) →ASAVAA (SEQ ID NO: 18) (from UniProt P53805 56-252) | 220 fold |  |  |
| RCAN1^89-197 (from UniProt O35847 89-142) |  | 10 nM |  |
| RCAN1^128-192 (from UniProt P53805 183-247) |  | 300 nM |  |
| RPKPKIIQTRRPEYT (modifications not checked) [peptide consisting of RCAN1^178-192 that includes the TxxP (SEQ ID NO: 11) site] |  |  | Kd [1]: 15000 nM |
